The target in this assay is T1, Rhesus D antigen (human, UniProt Q02161 2-417).
T1 construct: whole, on cells; Presented on RhD-positive erythrocytes in all assays; also called RhD; RhD antigen
T1 sequence (looked up): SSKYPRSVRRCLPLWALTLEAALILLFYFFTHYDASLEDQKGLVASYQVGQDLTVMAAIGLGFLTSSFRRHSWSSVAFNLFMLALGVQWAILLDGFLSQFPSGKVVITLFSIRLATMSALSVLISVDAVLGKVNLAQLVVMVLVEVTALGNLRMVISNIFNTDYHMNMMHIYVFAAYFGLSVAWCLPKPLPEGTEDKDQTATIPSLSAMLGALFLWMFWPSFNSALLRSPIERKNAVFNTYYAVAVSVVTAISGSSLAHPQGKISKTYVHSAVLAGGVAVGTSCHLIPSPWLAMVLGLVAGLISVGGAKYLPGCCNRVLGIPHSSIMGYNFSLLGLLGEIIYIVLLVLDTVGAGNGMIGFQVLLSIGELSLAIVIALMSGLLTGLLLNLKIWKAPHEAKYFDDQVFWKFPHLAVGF
Nature of the assay: agglutination assay, Fab on RhD(+)/RhD(-) RBC mix. The method, then:
After each round of panning single colonies were picked for analysis of their binding properties to red blood cells in agglutination assays. Briefly, single colonies were inoculated into 2×YT/100 μg/mL carbenicillin/1% glucose and shaken overnight at 37° C. The next day, DeepWell plates were inoculated using 900 μl 2×YT/100 μg/mL carbenicillin/0.1% glucose and 10 μl overnight culture. The plates were shaken for two hours at 37° C., before Fab induction was performed with addition of 300 μl 2×YT/100 μg/mL carbenicillin/0.25 mM IPTG per well. The plate was shaken overnight at 30° C. The following day, the bacteria were pelleted by centrifugation (3200×g, 4° C., 10 minutes), and re-suspended in 100 μl of 0.8 M NaCl, 0.2×PBS, 8 mM EDTA, and incubated for 15 minutes on ice in order to perform a periplasmic extraction of the Fab fragments. The plate was transferred to −20° C. and finally the suspension was thawed and centrifugation was performed for 10 minutes at 4° C. and 3200×g. The periplasmic extract was used in ELISA assays for analysis of Fab content and in agglutination assays to evaluate the binding potential of the individual Fab fragments. The agglutination assay was performed as follows: RhD(−) and RhD(+) RBC were mixed in a 1:1 ratio, and washed 3 times in PBS. After the final wash, the cell mix was re-suspended in 1% BSA in PBS at a density of 1% cells, 50 μl was added to each well of a 96-plate. Periplasmic extracts were added to the wells. As a positive control Rhesogamma P immunoglobulin (Aventis) was used according to the manufacturer's instructions. The plates were incubated for one hour at room temperature with gentle shaking. The cells were washed three times with PBS, before the secondary antibody was added (goat anti-human Fab/FITC conjugate, Sigma F5512) in a 1:100 dilution. The plates were left for agglutination for one hour at room temperature without shaking. Fab fragments positive in the agglutination assay was determined by visual inspection, and recorded by taking a picture. Quantization of the binding activity of the Fab fragments was performed by FACS analysis of the agglutination samples.

B1: RhD192.119G06 (Fab, V domains shown)
VH: QVQLVESGGGLVKPGGSLRLSCAASGFTFSSYAMNWVRQAPGKGLEWVSSISGTSSYIYYADSVKGRFTIFRDNAKSSVYLQMNSLRVEDTAVYYCARDRWWGMVRRVFPTYPFDYWGQGTLVTVSS
VL: DIQLTQSPSSVSASVGDRVTITCRASQGINNLLAWYQQKPGKAPKLLIYAASNLQSGVPSRFSGSGSGTDFTLTINSLQPEDFATYYCQQANSFPLTFGGGTKVEIKR
notes: Tested as Fab (periplasmic extract)
Take B1: the binding result is given as “binds”.

B2: RhD191.119E08 (Fab, V domains shown)
VH: QVQLVESGGDLVQPGGSLRLSCAASGFTFRSYEMNWVRQAPGKGLEWVSYINSRGNTKYYADSVKGRFTISRDNAKKSLYLQMSSLRAEDTAVYYCARNLFGDYDLKSYYYNAMDVWGQGTLVTVSS
VL: EIVLTQSPGTLSSSPGERATLSCRASQSVTSRYLAWYQQKHGQAPRLLIYGTSTRATGIPDRFSGGGSQTDFTLTISRLEPEDFAVYYCQHYDDSISTYIFGPGTELEIKR
notes: as for B1
Take B2: the binding result is “binds”.

B3: RhD200.164G10 (Fab, V domains shown)
VH: VQLVESGGGGVVQPGRSLRLSCAASGFTFSSYGMHWVRQAPGKGLEWVAVIWYDGSNKYYADSVKGRFTISRDNSKNTLYLQMNSLRAEDTAVYYCARESTLYSSSWYRRYYYYGMDVWGQGTTVTVSS
VL: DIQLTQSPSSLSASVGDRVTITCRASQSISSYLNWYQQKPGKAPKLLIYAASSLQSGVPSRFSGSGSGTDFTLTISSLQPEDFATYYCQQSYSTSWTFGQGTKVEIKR
notes: as for B1
For B3, the binding result is “binds”.

B4: RhD201.164H12 (Fab, V domains shown)
VH: QVQLVESGGGVVQPGRSLRLSCAASGFTFSSYAMHWVRQAPGKGLEWVAVISYDGSNKYYADSVKGRFTISRDNSKNTLYLQMNSLRAEDTAVYYCARESTLYSSSWYRRYYYYSMDVWGQGTTVTVSS
VL: EIVLTQSPATLSVSPGERATLSCRASQSVTSNLAWYQQKPGQAPRLLIYGASTRATGVPARFSGSGSGTEFSLTISSLQSEDFAVYYCQQYNNWPPIFTFGPGTKLDIKR
notes: as for B1
Turning to B4, the binding result is reported as “binds”.

B5: RhD202.158E07 (Fab, V domains shown)
VH: QVQLVESGGGVVQPGRSLRLSCAASGFTFSSYGMHWVRQAPGKGLEWVAVIWFDGSNRYYGDSVKGRVTISRDNSKNTLYLRMNSLRAEDTAVYYCAREFYTRSGLWSQGYSYYMDVWGKGTTVTVSS
VL: EIVLTQSPGTLSLSPGERATLSCRASQSVSSSYLAWYQHKPGQAPRLLIYGSSNRATGIPDRFSGSGSGTDFTVTISRLEPEDFAVYYCQQYGTAPYTFGQGTKLEIKR
notes: as for B1
Consider B5, for which the binding result is “binds”.

B6: RhD195.127A07 (Fab, V domains shown)
VH: QVQLQESGPGLVKPSQTLSLTCTVSGGSISSGSYYWSWIRQPAGKGPEWIGRIYTSGSTNYNPSLKSRLTISVDTSKNQFSLKLTSVTAADTAVYYCARAPSYYDSSGYRYWYIDLWGRGTLVTVSS
VL: DIQLTQSPSSLSASVGDRVTITCRASQNINRYLNWYQHKPGRAPELLIYAASTLRRGVPSRFSGSGSGTDFTLTISSLQPEDFATYYCQQSYSRGTFGQGTKVEIKR
notes: as for B1
In the case of B6, the binding result is “binds”.

B7: RhD197.127A08 (Fab, V domains shown)
VH: QVQLVESGGGVVQPGRSLRLSCAASGFTFSNYGMHWVRQAPGKGLEWVAVIWFDGSNRDYADSVKGRFTISRDNSKKTLYLQMNSLRAEDTAVYYCATELARGRLRALEYWGQGTLVTVSS
VL: QTVVTQEPSLTVSPGGTVTLTCASSTGAVTTGYYPNWFQQKPGQAPRALIYSTSKKHSWTPARFSGSLLGGKAALTLSGVQPEDEAEYYCLLFYGGAQLGVFGGGTKLTVLG
notes: Tested as Fab (periplasmic extract); lambda clone
B7: the binding result was “binds”.

B8: RhD207.127A11 (Fab, V domains shown)
VH: EVQLVESGGGVVQPGRSLRLSCAASGFTFSSYGMHWVRQAPGKGLEWVAVIWYDGSNKDYVDSVKGRFTISRDNSKNTLYLQMNSLRAEDTAVYYCARELAKGRLRDLDHWGQGTLVTVSS
VL: QAVVTQEPSLTVSPGGTVTLTCASSTGAVTTGYYPNWFQQKPGQAPRALVHSTSKKHSWTPARFSGSLLGGKAALTLSGVQPEDEAEYYCLLFYGGAQLGVFGGGTKLTVLG
notes: as for B1
As to B8, the binding result is given as “binds”.

B9: RhD190.119F05 (Fab, V domains shown)
VH: EVQLVETGGGVVQPGRSLRLSCAASGFSFSNYGMHWVRQAPGKGLEWVAVIWFDGSIKYYVDSVKGRFTISRDNSKNTLYLQMNSLRAEETAIYFCARENSVLVPGTIRRRYYLDYWGQGTLVTVSS
VL: DIQLTQSPSSLSASVGDRVTITCRASQSISSYLNWYQQKPGEAPKLLIYVASTLQSGAPSRFSGSGSGTDYTLTISSLQPEDSATFYCQQTYSPPYTFGQGTKLEIKR
notes: as for B1
Take B9: the binding result is “binds”.

B10: RhD157.119D11 (Fab, V domains shown)
VH: EVQLVESGGGLVQPGGSLRLSCVASGFTFRSFDMNWVRQAPGKGLEWVSYINSRGSTIYYADSVKGRFTISRENAKNSLYLQMNSLRAEDTAVYYCARDLYGDYDPKSYYYYGMGVWGQGTTVTVSS
VL: EIVLTQSPATLSLSPGERATLSCRASQSVSSYLAWYQQKRGQAPRLLIFNASNRATGIPARFSGSGSGTDFTLTISSLEPEDFAVYYCQQRSSWPPMYTFGQGTKLEIKR
notes: as for B1
For the molecule B10, the binding result was “binds”.

B11: RhD199.164E03 (Fab, V domains shown)
VH: QVQLVESGGGVVQPGRSLRLSCAASGFTFSSYGMHWVRQAPGKGLEWVAVIWYDGSNKYYADSVKGRFTISRDNSKNTLHLQMNSLRAEDTAVYYCAREVGFGSGWSRYYYGMDVWGQGTTVTVSS
VL: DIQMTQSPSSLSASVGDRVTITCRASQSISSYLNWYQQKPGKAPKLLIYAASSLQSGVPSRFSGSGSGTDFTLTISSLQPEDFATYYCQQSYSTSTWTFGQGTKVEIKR
notes: as for B1
For the molecule B11, the binding result is reported as “binds”.

B12: RhD194.126G10 (Fab, V domains shown)
VH: QVTLKESGPVLVKPTETLTLTCTVSGFSLSNARMGVSWIRQPPGKALEWLAHIFSNDEKSYSTSLKSRLTISKDTSKSQVVLTMTNMDPVDTATYYCARMRLTMVRGVITYYYYSMDVWGQGTTVTVSS
VL: DIQMTQSPSSLSASVGDRVTITCRASQSISTYLNWYQQKPGKAPKLLIYAASTLQSGVPSRFSGSGSGTHFTLTISSLQREDFATYYCQQTYRTPTWTFGQGTKVEIKR
notes: as for B1
B12: the binding result is recorded as “binds”.

B13: RhD298.126E10 (Fab, V domains shown)
VH: QVQLVESGGGVVQPGRSLRLSCAASGFTFSSYGMHWVRQAPGKGLEWVAVIWYDGSNKYYADSVKGRFTISRDNSKNTLYLQMNSVRAEDTAVYYCARDLSTQRGYSRYYYVMDVWGQGTTVTVSS
VL: DIQMTQSPSSLSASVGDRVTITCRASQSISTYLNWYQQKPGKAPKLLISAASSLQSGVPSRFSGSGSGTDFTLTISSLQREDYAAYYCQQSYSTPPYTFGQGTKLEIKR
notes: as for B1
In the case of B13, the binding result is “binds”.

B14: RhD198.127F10 (Fab, V domains shown)
VH: QVQLVQSGGGVVQPGKSLRLSCAASGFTFSTYGMHWVRQAPGKGLEWVAVIWYDGSNKYYADSVKGRFTISRDTSKNTLYLQMNSVRVEDTAVYYCARDLTTQRGYSRYHYVMDVWGQGTTVTVSS
VL: DIQMTQSPSSLSASVGDRVTITCRASQSIGNYLNWYQQKPGKAPKLLISAASSLQSGVPSRFSGSGSGTDFTLTISSLHREDYATYYCQQSYSTPPYTFGQGTKLEIKR
notes: as for B1
For B14, the binding result is listed as “binds”.

B15: RhD196.126H11 (Fab, V domains shown)
VH: QVQLVESGGGVVQPGRSLRLSCAASGFTFSSYGMHWVRQAPGKGLEWVAVIWYDGSNKDYADSVKGRFTISRDNSKNTLYLQMNSVRAEDTAVYYCARELSTQRGYSRYHYVMDVWGQGTTVTVSS
VL: DIQMTQSPSSLSASVGDRVTITCRASQSISTYLNWYQQKPGKAPKLLIYAASTLQSGVPSRFSGSGSGTHFTLTISSLQREDFATYYCQQSYGTPTWTFGQGTKVEIKR
notes: as for B1
Turning to B15, the binding result is “binds”.

B16: RhD193.126G05 (Fab, V domains shown)
VH: QVQLVETGGGVVQPGRSLRLSCAASGFTFSSYGMHWVRQAPGKGLEWVAVIWYDGSNKDYADPVKGRFTISRDNSKNTLYLQMNSLRAEDTAVYYCAREIASRGYSRYLYYFDSWGQGTLVTVSS
VL: DIQMTQSPSSLSASVGDRVTITCRASQSISSYLNWYQQNPGKAPKLLIYGASNLQSGVPSRFSGSGSGTDFTLTISSLQPEDFATYYCQQSYSTLALTFGGGTKVEIKR
notes: as for B1
Take B16: the binding result is reported as “binds”.

B17: RhD297.126E06 (Fab, V domains shown)
VH: QVQLVESGGGVVQPGRSLRLSCAASGFTFRTYGMHWVRQAPGKGLEWVAVIWYDGSNKDYADSVKGRFTISRDNSKNTLHLQMNSLRAEDTAVYYCAREIASRGYSRYLYYLDFWGQGTLVTVSS
VL: DIQLTQSPSSLSASVGDRVTITCRASQSISSYLNWYQQNPGKAPKLLIYGASNLQSGVPSRFSGSGSGTDFTLTISSLQPEDFATYYCQQSYSTLALTFGGGTKVEIKR
notes: as for B1
Regarding B17, the binding result is recorded as “binds”.
